Reference: paper PMC12560621, “β-Branching in the biosynthesis of bongkrekic acid: a complex affair” (RSC Advances, 2025)

Experiments:
[1] = molecular target: BonH (Burkholderia gladioli pv. cocovenenans); test: SEC; analytical size exclusion chromatography of the purified protein in solution; conditions in the supplementary information
[2] = molecular target: BonA_ACP1a (Burkholderia gladioli pv. cocovenenans)
[3] = molecular target: BonA_ACP2a (Burkholderia gladioli pv. cocovenenans)
[4] = molecular target: the molecule itself; test: SEC; analytical size exclusion chromatography of the purified protein in solution; conditions in the supplementary information

How did the stoichiometry N [1] turn out when BonH (enzyme) was run?
The stoichiometry N was 3.

What about the BonH-catalysed conversion of HMG-BonA ACP1a to the MG-ACP product, by ESMS [2] of the same molecule?
Its BonH-catalysed conversion of HMG-BonA ACP1a to the MG-ACP product, by ESMS is 15%.

BonI (enzyme) was tested. Which BonI-catalysed decarboxylation of MG-BonA ACP2a (made by BonH from HMG-BonA ACP2a) to endo-β-methyl-BonA ACP2a, by ESMS and Ppant ejection [3] did it give?
The BonI-catalysed decarboxylation of MG-BonA ACP2a (made by BonH from HMG-BonA ACP2a) to endo-β-methyl-BonA ACP2a, by ESMS and Ppant ejection was 50%.

And the BonI-catalysed conversion (with BonH) of HMG-BonA ACP1a to the endo-β-methyl-ACP product, by ESMS [2]?
Its BonI-catalysed conversion (with BonH) of HMG-BonA ACP1a to the endo-β-methyl-ACP product, by ESMS is 15%.

B1: BonI (enzyme)
chain: MSRPAHFHGSATEMSERVVHLAELEPGIVRITLEDRTHKNAFSDRLLNGIVEAFAEVAANPSWKAVILTGYDTYFCTGGTQDMLLKLSKGEGRFTDFPIYNLPLTCEIPVIAAMQGHAVGGGLALGLFADFVVLSRESVYTANFMKYGFTPGFGSTLVMREKLGLPLAQALLMTAANYRGDELARHGIAFPVLPRAEVAAHALDIARQLADKPRHSLVTLKAHLNAPLRAMLPEVTAREVEMHERTFPHPEVQQRIRALFGS
For B1, which “stoichiometry N” value [4] is on record?
Its value is 3.
